The results in this text go back to paper doi:10.1101/2021.09.23.461563.

The target in assay [1] is GST-ErpQ (Borrelia burgdorferi strain B31). The assay is described as follows: SPR.
The target of assay [2] is GST-ErpB (Borrelia burgdorferi strain B31). The assay is described as follows: SPR. Background: In SPR one partner is held on a chip, and binding of the other changes the refractive index at the surface.
The target in assay [3] is human C1 complex (C1qC1r2C1s2) (human) (UniProt P02745). The assay is described as follows: ELISA. (ELISA stands for enzyme-linked immunosorbent assay.)
Sequence of human C1 complex (C1qC1r2C1s2) (human) (P02745 whole entry, looked up, one chain of several): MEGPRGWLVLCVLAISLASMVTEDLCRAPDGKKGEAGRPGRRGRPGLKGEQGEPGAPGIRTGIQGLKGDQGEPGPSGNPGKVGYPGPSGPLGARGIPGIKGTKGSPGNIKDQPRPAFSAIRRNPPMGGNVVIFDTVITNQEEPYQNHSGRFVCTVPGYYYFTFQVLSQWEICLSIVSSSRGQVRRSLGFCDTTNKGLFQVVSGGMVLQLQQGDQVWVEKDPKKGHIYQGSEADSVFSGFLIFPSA
Assay [4] has as its target C1r enzyme (activated form of human C1r) (human) (UniProt P00736). The assay is described as follows: ELISA.
For assay [5], the target named is C1s enzyme (activated form of human C1s) (human) (UniProt P09871). The assay is described as follows: ELISA.
Sequence of C1s enzyme (activated form of human C1s) (human) (P09871 16-437, chain 1 of 2): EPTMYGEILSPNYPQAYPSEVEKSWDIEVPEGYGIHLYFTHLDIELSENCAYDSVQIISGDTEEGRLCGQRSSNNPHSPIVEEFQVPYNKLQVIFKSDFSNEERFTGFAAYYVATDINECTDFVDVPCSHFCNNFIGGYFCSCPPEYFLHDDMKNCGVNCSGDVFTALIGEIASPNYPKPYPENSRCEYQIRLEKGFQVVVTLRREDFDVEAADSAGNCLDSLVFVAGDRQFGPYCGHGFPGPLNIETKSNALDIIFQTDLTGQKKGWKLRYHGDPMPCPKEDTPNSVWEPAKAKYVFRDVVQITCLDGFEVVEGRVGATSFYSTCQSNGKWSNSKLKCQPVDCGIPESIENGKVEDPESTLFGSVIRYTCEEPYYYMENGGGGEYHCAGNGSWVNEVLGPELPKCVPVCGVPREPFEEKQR
Sequence of C1s enzyme (activated form of human C1s) (human) (P09871 438-688, chain 2 of 2): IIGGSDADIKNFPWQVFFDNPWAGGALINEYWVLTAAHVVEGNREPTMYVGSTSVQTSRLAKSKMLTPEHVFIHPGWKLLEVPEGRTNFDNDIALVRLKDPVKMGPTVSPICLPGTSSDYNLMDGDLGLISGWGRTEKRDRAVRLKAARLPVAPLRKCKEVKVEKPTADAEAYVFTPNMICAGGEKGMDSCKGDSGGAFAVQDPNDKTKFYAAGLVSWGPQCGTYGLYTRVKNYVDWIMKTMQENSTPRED

pKd: −log10 of the molar value.

Sequence of C1r enzyme (activated form of human C1r) (human) (P00736 18-463, chain 1 of 2): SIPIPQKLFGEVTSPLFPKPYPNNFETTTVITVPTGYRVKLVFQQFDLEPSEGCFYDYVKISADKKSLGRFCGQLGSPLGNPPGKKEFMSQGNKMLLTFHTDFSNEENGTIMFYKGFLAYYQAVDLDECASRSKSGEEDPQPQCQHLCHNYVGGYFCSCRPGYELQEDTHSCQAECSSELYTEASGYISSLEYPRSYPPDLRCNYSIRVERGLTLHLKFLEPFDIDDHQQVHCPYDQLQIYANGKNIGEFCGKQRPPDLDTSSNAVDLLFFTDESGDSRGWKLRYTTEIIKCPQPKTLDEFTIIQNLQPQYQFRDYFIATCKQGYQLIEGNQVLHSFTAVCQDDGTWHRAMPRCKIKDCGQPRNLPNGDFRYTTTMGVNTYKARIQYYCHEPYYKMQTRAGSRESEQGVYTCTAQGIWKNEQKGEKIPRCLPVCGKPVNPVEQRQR
Sequence of C1r enzyme (activated form of human C1r) (human) (P00736 464-705, chain 2 of 2): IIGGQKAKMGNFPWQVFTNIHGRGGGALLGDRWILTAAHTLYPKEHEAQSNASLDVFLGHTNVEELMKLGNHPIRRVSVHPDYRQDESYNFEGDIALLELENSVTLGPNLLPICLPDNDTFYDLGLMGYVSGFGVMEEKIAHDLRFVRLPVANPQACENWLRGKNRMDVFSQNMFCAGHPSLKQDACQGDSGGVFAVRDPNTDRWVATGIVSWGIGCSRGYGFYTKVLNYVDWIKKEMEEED
Sequence of human C1 complex (C1qC1r2C1s2) (P02746 whole entry, looked up): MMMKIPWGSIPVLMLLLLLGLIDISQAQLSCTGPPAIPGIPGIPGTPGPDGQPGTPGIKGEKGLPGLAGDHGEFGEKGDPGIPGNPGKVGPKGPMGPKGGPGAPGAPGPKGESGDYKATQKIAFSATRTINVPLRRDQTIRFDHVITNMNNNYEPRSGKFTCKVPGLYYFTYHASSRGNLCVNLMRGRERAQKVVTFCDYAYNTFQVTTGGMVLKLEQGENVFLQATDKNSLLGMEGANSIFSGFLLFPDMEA
Sequence of human C1 complex (C1qC1r2C1s2) (P02747 whole entry, looked up): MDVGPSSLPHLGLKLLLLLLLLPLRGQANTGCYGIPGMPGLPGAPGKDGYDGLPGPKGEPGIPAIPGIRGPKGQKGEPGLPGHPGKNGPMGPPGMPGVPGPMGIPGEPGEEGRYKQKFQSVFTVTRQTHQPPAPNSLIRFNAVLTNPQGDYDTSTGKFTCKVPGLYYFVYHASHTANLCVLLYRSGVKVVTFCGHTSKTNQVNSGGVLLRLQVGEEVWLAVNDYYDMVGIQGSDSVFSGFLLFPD
Sequence of human C1 complex (C1qC1r2C1s2) (P02745 whole entry, looked up): as the sequence (P02745 whole entry, looked up, one chain of several) above

With C1s proenzyme (human), the pKd is 6.77 in assay [1] and 6.57 in assay [2].
Turning to GST-ErpB (natural protein), the figures for the negative logarithm of the Kd (pKd) in assay [3], in assay [4] and in assay [5] were 8.47, 7.39 and 8.17, respectively.
For GST-ErpQ (natural protein) the same measures were 8.42, 7.96 and 8.33.
In turn, “human C1 complex (C1qC1r2C1s2) (from UniProt P02745 23-245; P02746 28-253; P02747 29-245)” had a pKd in assay [2] of 8.25.

By pKd is commonly meant the Kd on a negative log10 scale, so that one unit is a factor of ten.
